Laboratory results from IntAct's records for PubMed 28065597.

B1: Macrophage-stimulating protein receptor (Mus musculus), Q62190 (parent)
chain: MGLPLPLLQSSLLLMLLLRLSAASTNLNWQCPRIPYAASRDFSVKYVVPSFSAGGRVQATAAYEDSTNSAVFVATRNHLHVLGPDLQFIENLTTGPIGNPGCQTCASCGPGPHGPPKDTDTLVLVMEPGLPALVSCGSTLQGRCFLHELEPRGKALHLAAPACLFSANNNKPEACTDCVASPLGTRVTVVEQGHASYFYVASSLDPELAASFSPRSVSIRRLKSDTSGFQPGFPSLSVLPKYLASYLIKYVYSFHSGDFVYFLTVQPISVTSPPSALHTRLVRLNAVEPEIGDYRELVLDCHFAPKRRRRGAPEGTQPYPVLQAAHSAPVDAKLAVELSISEGQEVLFGVFVTVKDGGSGMGPNSVVCAFPIYHLNILIEEGVEYCCHSSNSSSLLSRGLDFFQTPSFCPNPPGGEASGPSSRCHYFPLMVHASFTRVDLFNGLLGSVKVTALHVTRLGNVTVAHMGTVDGRVLQVEIARSLNYLLYVSNFSLGSSGQPVHRDVSRLGNDLLFASGDQVFKVPIQGPGCRHFLTCWRCLRAQRFMGCGWCGDRCDRQKECPGSWQQDHCPPEISEFYPHSGPLRGTTRLTLCGSNFYLRPDDVVPEGTHQITVGQSPCRLLPKDSSSPRPGSLKEFIQELECELEPLVTQAVGTTNISLVITNMPAGKHFRVEGISVQEGFSFVEPVLTSIKPDFGPRAGGTYLTLEGQSLSVGTSRAVLVNGTQCRLEQVNEEQILCVTPPGAGTARVPLHLQIGGAEVPGSWTFHYKEDPIVLDISPKCGYSGSHIMIHGQHLTSAWHFTLSFHDGQSTVESRCAGQFVEQQQRRCRLPEYVVRNPQGWATGNLSVWGDGAAGFTLPGFRFLPPPSPLRAGLVELKPEEHSVKVEYVGLGAVADCVTVNMTVGGEVCQHELRGDVVICPLPPSLQLGKDGVPLQVCVDGGCHILSQVVRSSPGRASQRILLIALLVLILLVAVLAVALIFNSRRRKKQLGAHSLSPTTLSDINDTASGAPNHEESSESRDGTSVPLLRTESIRLQDLDRMLLAEVKDVLIPHEQVVIHTDQVIGKGHFGVVYHGEYTDGAQNQTHCAIKSLSRITEVQEVEAFLREGLLMRGLHHPNILALIGIMLPPEGLPRVLLPYMRHGDLLHFIRSPQRNPTVKDLVSFGLQVACGMEYLAEQKFVHRDLAARNCMLDESFTVKVADFGLARGVLDKEYYSVRQHRHARLPVKWMALESLQTYRFTTKSDVWSFGVLLWELLTRGAPPYPHIDPFDLSHFLAQGRRLPQPEYCPDSLYHVMLRCWEADPAARPTFRALVLEVKQVVASLLGDHYVQLTAAYVNVGPRAVDDGSVPPEQVQPSPQHCRSTSKPRPLSEPPLPT
partner: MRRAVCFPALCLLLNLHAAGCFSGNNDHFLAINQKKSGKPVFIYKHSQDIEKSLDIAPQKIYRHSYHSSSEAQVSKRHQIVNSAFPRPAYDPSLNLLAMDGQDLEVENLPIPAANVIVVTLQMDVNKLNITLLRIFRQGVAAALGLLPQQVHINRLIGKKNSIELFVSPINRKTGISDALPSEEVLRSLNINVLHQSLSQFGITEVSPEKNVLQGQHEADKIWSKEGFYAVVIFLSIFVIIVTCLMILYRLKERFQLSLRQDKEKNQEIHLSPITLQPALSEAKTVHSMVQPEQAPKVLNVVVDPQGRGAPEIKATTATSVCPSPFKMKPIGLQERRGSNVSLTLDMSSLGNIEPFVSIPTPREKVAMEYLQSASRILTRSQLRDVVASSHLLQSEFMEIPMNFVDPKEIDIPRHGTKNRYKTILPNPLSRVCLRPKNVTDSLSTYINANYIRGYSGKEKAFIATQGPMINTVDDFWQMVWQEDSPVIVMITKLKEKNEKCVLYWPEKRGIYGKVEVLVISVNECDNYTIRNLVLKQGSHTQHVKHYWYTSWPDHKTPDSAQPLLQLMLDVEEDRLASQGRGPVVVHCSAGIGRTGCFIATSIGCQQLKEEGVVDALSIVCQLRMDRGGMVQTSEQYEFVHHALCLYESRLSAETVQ
B2: Receptor tyrosine-protein kinase erbB-4 (Homo sapiens), Q15303 (parent)
chain: MKPATGLWVWVSLLVAAGTVQPSDSQSVCAGTENKLSSLSDLEQQYRALRKYYENCEVVMGNLEITSIEHNRDLSFLRSVREVTGYVLVALNQFRYLPLENLRIIRGTKLYEDRYALAIFLNYRKDGNFGLQELGLKNLTEILNGGVYVDQNKFLCYADTIHWQDIVRNPWPSNLTLVSTNGSSGCGRCHKSCTGRCWGPTENHCQTLTRTVCAEQCDGRCYGPYVSDCCHRECAGGCSGPKDTDCFACMNFNDSGACVTQCPQTFVYNPTTFQLEHNFNAKYTYGAFCVKKCPHNFVVDSSSCVRACPSSKMEVEENGIKMCKPCTDICPKACDGIGTGSLMSAQTVDSSNIDKFINCTKINGNLIFLVTGIHGDPYNAIEAIDPEKLNVFRTVREITGFLNIQSWPPNMTDFSVFSNLVTIGGRVLYSGLSLLILKQQGITSLQFQSLKEISAGNIYITDNSNLCYYHTINWTTLFSTINQRIVIRDNRKAENCTAEGMVCNHLCSSDGCWGPGPDQCLSCRRFSRGRICIESCNLYDGEFREFENGSICVECDPQCEKMEDGLLTCHGPGPDNCTKCSHFKDGPNCVEKCPDGLQGANSFIFKYADPDRECHPCHPNCTQGCNGPTSHDCIYYPWTGHSTLPQHARTPLIAAGVIGGLFILVIVGLTFAVYVRRKSIKKKRALRRFLETELVEPLTPSGTAPNQAQLRILKETELKRVKVLGSGAFGTVYKGIWVPEGETVKIPVAIKILNETTGPKANVEFMDEALIMASMDHPHLVRLLGVCLSPTIQLVTQLMPHGCLLEYVHEHKDNIGSQLLLNWCVQIAKGMMYLEERRLVHRDLAARNVLVKSPNHVKITDFGLARLLEGDEKEYNADGGKMPIKWMALECIHYRKFTHQSDVWSYGVTIWELMTFGGKPYDGIPTREIPDLLEKGERLPQPPICTIDVYMVMVKCWMIDADSRPKFKELAAEFSRMARDPQRYLVIQGDDRMKLPSPNDSKFFQNLLDEEDLEDMMDAEEYLVPQAFNIPPPIYTSRARIDSNRSEIGHSPPPAYTPMSGNQFVYRDGGFAAEQGVSVPYRAPTSTIPEAPVAQGATAEIFDDSCCNGTLRKPVAPHVQEDSSTQRYSADPTVFAPERSPRGELDEEGYMTPMRDKPKQEYLNPVEENPFVSRRKNGDLQALDNPEYHNASNGPPKAEDEYVNEPLYLNTFANTLGKAEYLKNNILSMPEKAKKAFDNPDYWNHSLPPRSTLQHPDYLQEYSTKYFYKQNGRIRPIVAENPEYLSEFSLKPGTVLPPPPYRHRNTVV
partner: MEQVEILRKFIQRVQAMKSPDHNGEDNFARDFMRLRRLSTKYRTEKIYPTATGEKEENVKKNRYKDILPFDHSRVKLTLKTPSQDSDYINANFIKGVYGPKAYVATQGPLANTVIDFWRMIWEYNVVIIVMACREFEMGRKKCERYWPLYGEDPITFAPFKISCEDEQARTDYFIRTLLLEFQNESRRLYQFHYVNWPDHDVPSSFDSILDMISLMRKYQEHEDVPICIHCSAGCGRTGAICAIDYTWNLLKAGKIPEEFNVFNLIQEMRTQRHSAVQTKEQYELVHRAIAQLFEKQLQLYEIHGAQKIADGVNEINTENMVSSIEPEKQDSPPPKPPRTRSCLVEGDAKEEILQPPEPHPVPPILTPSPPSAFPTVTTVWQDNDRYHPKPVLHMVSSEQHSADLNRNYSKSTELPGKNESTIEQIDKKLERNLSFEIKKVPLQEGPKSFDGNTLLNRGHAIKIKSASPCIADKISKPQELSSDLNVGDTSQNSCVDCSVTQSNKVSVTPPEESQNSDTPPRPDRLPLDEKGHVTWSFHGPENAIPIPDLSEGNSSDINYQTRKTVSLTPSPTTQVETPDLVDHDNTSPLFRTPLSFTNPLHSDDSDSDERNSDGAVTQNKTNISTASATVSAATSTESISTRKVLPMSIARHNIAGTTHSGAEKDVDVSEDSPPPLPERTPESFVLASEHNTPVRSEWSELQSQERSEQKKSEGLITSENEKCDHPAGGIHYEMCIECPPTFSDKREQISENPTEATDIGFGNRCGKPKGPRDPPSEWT
B3: Receptor tyrosine-protein kinase erbB-4 (Homo sapiens), Q15303 (parent)
chain: B2 chain
B4: Receptor tyrosine-protein kinase erbB-4 (Homo sapiens), Q15303 (parent)
chain: B2 chain
partner: B1 partner
B5: Receptor tyrosine-protein kinase erbB-4 (Homo sapiens), Q15303 (parent)
chain: B2 chain
partner: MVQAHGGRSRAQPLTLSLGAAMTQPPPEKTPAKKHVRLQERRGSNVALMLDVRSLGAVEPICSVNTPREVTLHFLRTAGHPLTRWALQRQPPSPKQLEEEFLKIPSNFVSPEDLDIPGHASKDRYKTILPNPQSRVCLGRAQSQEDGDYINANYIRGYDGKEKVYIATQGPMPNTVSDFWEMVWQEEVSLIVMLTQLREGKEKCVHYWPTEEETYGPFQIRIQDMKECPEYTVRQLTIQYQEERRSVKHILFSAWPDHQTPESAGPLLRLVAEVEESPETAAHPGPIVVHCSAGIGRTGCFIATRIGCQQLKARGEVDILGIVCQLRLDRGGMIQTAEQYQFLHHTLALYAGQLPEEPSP

Variants of: B1
Settings: with ptprr_human PTPRR, Q15256

Question: Which “effect of a mutation on the interaction” value does the source give for K1091A here?
Answer: decreasing interaction

Variants of: B2
Settings: with ptn12_human PTPN12, Q05209

Question: How did the “effect of a mutation on the interaction” value turn out when D843N was run?
Answer: with no effect

Variants of: B2
Settings: with ptn12_human PTPN12, Q05209
Remark: another data set of the same source

Question: How did the “effect of a mutation on the interaction” value turn out when D843N was run?
Answer: increasing interaction

Variants of: B3
Settings: with ptn6_human PTPN6, P29350
Chain of ptn6_human PTPN6, P29350 (P29350 whole entry): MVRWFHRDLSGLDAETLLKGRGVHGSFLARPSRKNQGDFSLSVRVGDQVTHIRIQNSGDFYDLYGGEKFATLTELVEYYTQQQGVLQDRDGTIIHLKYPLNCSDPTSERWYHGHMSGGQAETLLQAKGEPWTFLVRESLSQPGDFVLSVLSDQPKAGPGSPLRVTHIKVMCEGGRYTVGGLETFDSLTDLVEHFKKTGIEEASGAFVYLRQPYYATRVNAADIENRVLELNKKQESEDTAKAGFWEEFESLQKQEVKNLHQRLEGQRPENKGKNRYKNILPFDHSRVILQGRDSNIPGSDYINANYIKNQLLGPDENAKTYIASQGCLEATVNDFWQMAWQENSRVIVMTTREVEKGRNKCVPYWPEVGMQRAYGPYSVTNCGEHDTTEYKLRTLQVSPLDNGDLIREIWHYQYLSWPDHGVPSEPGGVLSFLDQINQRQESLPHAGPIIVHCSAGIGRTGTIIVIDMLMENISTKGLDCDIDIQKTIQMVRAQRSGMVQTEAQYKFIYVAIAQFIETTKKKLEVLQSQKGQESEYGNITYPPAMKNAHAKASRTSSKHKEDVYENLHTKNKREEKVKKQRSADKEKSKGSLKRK

Question: Which “effect of a mutation on the interaction” value does the source give for D843N here?
Answer: with no effect

Variants of: B4
Settings: with ptprr_human PTPRR, Q15256

Question: How did the “effect of a mutation on the interaction” value turn out when D843N was run?
Answer: with no effect

Variants of: B5
Settings: with ptn7_human PTPN7, P35236

Question: Which “effect of a mutation on the interaction” value does the source give for D843N here?
Answer: increasing interaction
